What all share (assay): potentiometry
What all share (settings): 298 K, stated as 40 mM (SDS), 4 mM HClO4, no buffer

The target of series [1] is Nterm1 (position 1, -----FIHHIF).
The target in series [2] is Nterm1 (position 1, -----FFHHIF).
In series [3] the target is Lys14 (position 14, …).
[4] abbreviates: 1:1 Zn(II) complex (Zn bound by three His imidazoles; N-terminus and Lys not coordinated).

For orientation: pKa means the pH at which an ionisable group is half protonated. The low end stands for a stronger acid or weaker base, the high end for a weaker acid or stronger base. As to FIHHIFRGIVHAGRSIGRFLTG [Piscidin 3 (Morone saxatilis x Morone chrysops (hybrid striped bass))], the pKa in series [1] (setting [4]) turned out to be 7.29; in series [1] (metal-free peptide), 8.26.
For FFHHIFRGIVHVGKTIHRLVTG [Piscidin 1 (Morone saxatilis x Morone chrysops (hybrid striped bass))], the pKa was 7.88 in series [2] (setting [4]); 8.36 in series [2] (metal-free peptide); 9.82 in series [3] (1:1 Cu(II) complex, ATCUN 4N square-planar binding (N-terminal amine, two amides, His3 imidazole)); 10.09 in series [3] (setting [4]); 10.02 in series [3] (metal-free peptide).
FFHHIFRGIVHVGKTIHKLVTG [Piscidin 2 (Morone saxatilis x Morone chrysops (hybrid striped bass))]: the results for the pKa in series [2] (setting [4]) and in series [2] (metal-free peptide) were 8.04 and 8.82, respectively.
